Measured values from patent US20220072032A1 (AARHUS UNIVERSITET, published 2022).

What was measured:
[1] = target: Wild type human PCSK9 (proprotein convertase subtilisin-like/kexin type 9) (human, UniProt Q8NBP7 31-692, 35S metabolic label in the immunoprecipitations); assay: cell-based or functional assay
[2] = target: T1, PCSK9 mutant R93R96R97R104R105H139 (all mutated to alanine) (human, UniProt Q8NBP7 31-692, 35S metabolic label); assay: immunoprecipitation of 35S-labelled PCSK9 mutant R93R96R97R104R105H139 (all to alanine) by mAb, autoradiography (16 h) [CONT.) H]
T1 construct: also called mutant PCSK9; 35S-mutant PCSK9
T1 sequence (Q8NBP7 other isoform, or with tags, fused parts or gaps mutant limits assumed): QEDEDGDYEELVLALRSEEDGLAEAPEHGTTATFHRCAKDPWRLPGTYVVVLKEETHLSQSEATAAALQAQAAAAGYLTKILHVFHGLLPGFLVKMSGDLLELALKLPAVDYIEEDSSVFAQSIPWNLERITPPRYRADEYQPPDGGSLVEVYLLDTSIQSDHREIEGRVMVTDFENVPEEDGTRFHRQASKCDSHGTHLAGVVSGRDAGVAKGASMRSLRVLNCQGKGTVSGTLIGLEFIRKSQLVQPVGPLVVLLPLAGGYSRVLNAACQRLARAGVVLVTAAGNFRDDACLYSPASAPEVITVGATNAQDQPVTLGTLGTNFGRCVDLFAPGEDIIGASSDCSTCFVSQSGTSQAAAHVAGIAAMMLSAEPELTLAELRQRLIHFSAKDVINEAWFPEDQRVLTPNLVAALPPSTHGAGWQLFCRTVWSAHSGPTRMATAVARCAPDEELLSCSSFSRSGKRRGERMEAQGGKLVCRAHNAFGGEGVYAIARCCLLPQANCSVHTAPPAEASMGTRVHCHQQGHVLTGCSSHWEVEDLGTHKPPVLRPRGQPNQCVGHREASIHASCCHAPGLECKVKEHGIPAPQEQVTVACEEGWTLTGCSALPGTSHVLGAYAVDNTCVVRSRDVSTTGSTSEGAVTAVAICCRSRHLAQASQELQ

[3] = target: T2, PCSK9 mutant R96R97 (alanine substitutions) (human, UniProt Q8NBP7 31-692, 35S metabolic label); assay: immunoprecipitation of 35S-labelled PCSK9 WT and alanine variants, autoradiography [CONT.) I]
T2 construct: also called variant R96R97
T2 sequence (Q8NBP7 other isoform, or with tags, fused parts or gaps mutant limits assumed): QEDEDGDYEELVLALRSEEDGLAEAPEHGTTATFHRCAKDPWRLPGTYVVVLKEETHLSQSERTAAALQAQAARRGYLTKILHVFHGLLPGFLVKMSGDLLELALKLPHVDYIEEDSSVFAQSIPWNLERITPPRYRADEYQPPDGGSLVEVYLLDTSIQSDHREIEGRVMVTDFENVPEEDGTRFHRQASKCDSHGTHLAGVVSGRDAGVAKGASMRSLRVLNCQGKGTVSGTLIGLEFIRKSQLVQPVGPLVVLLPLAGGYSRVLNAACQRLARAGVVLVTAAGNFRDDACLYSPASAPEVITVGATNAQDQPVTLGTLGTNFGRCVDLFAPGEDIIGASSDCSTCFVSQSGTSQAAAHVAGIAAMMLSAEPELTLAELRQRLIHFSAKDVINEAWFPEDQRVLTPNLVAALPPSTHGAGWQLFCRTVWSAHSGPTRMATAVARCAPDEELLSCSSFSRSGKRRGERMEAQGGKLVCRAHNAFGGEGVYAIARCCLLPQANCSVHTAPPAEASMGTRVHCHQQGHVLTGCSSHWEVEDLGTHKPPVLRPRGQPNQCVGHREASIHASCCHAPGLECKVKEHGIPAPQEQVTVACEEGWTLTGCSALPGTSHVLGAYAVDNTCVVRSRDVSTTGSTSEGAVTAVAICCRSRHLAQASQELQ

[4] = target: T3, PCSK9 mutant R104R105 (alanine substitutions) (human, UniProt Q8NBP7 31-692, 35S metabolic label); assay: as above
T3 construct: also called variant R104R105
T3 sequence (Q8NBP7 other isoform, or with tags, fused parts or gaps mutant limits assumed): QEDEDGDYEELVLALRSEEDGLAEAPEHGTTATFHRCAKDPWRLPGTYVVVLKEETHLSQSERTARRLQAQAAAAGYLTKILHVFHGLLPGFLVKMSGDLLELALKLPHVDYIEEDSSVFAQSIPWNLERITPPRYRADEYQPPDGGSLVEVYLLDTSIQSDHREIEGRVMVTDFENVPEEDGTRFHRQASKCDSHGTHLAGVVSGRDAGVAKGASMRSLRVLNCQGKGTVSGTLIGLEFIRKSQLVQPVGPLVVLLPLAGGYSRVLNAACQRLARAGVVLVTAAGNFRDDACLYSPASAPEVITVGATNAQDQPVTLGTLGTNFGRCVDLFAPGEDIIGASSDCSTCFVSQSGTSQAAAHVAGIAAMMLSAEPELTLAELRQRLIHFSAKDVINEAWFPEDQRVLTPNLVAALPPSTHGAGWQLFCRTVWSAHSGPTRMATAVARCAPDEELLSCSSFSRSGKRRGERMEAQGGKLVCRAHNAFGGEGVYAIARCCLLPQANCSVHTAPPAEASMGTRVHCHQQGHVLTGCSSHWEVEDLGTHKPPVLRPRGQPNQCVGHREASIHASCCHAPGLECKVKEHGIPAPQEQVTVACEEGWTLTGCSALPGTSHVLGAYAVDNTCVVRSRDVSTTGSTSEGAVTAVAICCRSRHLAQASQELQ

R93R104R105H139 = target: T4, R93R104R105H139 (35S metabolic label); assay: as above
T4 construct: also called 35S PCSK9 variant R93R104R105H139
T4 sequence (PCSK9, as listed by the source limits assumed): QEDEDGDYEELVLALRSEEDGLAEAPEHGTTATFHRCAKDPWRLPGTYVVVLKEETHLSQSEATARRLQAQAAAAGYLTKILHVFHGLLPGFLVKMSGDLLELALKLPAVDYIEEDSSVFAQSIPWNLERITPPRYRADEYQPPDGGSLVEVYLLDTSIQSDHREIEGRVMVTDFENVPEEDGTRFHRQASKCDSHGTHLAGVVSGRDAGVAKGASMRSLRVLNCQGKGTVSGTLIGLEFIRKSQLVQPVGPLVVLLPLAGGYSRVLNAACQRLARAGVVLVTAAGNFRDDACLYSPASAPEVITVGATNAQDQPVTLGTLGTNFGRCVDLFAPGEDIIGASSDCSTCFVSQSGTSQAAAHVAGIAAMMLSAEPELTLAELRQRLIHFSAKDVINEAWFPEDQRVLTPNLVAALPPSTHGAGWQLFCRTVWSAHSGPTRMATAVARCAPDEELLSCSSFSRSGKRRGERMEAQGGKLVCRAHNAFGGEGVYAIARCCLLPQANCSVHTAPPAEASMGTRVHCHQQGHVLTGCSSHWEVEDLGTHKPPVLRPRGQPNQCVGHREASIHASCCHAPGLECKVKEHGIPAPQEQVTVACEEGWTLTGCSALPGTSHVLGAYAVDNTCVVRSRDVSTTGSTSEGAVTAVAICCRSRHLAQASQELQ

Sequence of Wild type human PCSK9 (proprotein convertase subtilisin-like/kexin type 9) (Q8NBP7 31-692 limits assumed): as the sequence (PCSK9, as listed by the source limits assumed) above, with A63R, A74R, A75R, A109H counted along it

cellular levels of LDLR in HepG2 cells (Western blot) [1] | binding result [3] | binding result [4] | binding result (R93R104R105H139) | Binder | binding result [2]
~2 fold | – | – | – | mAb 8H4 (rat hybridoma BNT-8H4-B8/C7-E11) (antibody, V domains shown, Rat monoclonal antibody, used as conditioned hybridoma medium) VH: QVTLKESGPGILQPSQTLSLTCSFSGFSLSSSGICVSWIRQPSGKGLEWLATICWEDSKGYNPSLKNRLTISKDTSNNQALLRITSVDTADTAIYYCARVYYWYFDFWGPGTMVTVSS VL: DIVMTQSPSLLSASVGDRVTLSCKGSQNINNYLAWYQQKLGEAPKLLIYNTNSLQTGIPSRFSGSGSGTDCTLTIRSLQPEDVATYFCYQYNNGNTFGGGTKLELK | no binding (tested: 500 µl conditioned hybridoma medium)
~2 fold | no binding | no binding | no binding | mAb 5E11 (rat hybridoma BNT-5E11-D4/G1-E4) (antibody, V domains shown, Rat monoclonal antibody, used as conditioned hybridoma medium) VH: EVQLQESGPGLVKPSQSLSLTCSVTGYTITSGYDWSWIRRFPGNTMEWMGDISYSGSTNYNPSLKSRVSITRDTSKNQFFLQLNSVTTGDTATYYCAKLPGWGQGTLVTVSS VL: DVVLTQTPVFLSVTLGDQTSISCRSSQSLEYSDGYTYLEWYLQKPGQSPQLLIYEVSNRFSGVPDRFIGSGSGTDFTLKISRVEPEDLGVYYCFQGTHDPLTFGSGTKLEIK | no binding (tested: 500 µl conditioned hybridoma medium)
